From publication PMC2814181
Each block holds one substance with its values, some of them ahead of it.

Tests used:
dTomato [1] = test: SEC-MALS
dTomato [2] = test: native gel or EMSA
dTomato [3] = test: SDS-PAGE of unboiled samples
[4] = target: Neptune (mKate M41G S61C S158C Y194F); test: SEC-MALS
[5] = target: Neptune (mKate M41G S61C S158C Y194F); test: native gel or EMSA
[6] = target: Neptune (mKate M41G S61C S158C Y194F); test: AUC
[7] = target: Neptune, His tag removed by TEV protease (crystallized form); test: crystal structure
mKate [8] = test: SEC-MALS
mKate [9] = test: native gel or EMSA

stoichiometry N (dTomato [1]): 2
stoichiometry N (dTomato [2]): 2
stoichiometry N (dTomato [3]): 2
Substance: dTomato

stoichiometry N [4]: 2
stoichiometry N [5]: 2
Kd [6]: 500 nM
Substance: Neptune (mKate M41G S61C S158C Y194F)

stoichiometry N [7]: 4
Substance: Neptune, His tag removed by TEV protease (crystallized form)

stoichiometry N (mKate [8]): 2
stoichiometry N (mKate [9]): 2
Substance: mKate
